Reference: the supplement of paper PMC10065799, “High-throughput profiling of sequence recognition by tyrosine kinases and SH2 domains using bacterial peptide display” (eLife, 2023)

system: c-Abl (mouse); assay: phosphorylation enrichment, bacterial display (enrichment ratio); higher = better substrate or ligand; peptides without Tyr show the background
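Also: 11-residue human phosphosite peptides and single-mutation variants displayed on the E. coli surface, counted by deep sequencing, each peptide's frequency after selection divided by its frequency in the unselected input library; frequency after pTyr selection over input frequency; kinase dosed for 20-30% of maximal phosphorylation in three min.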

Q: SIVEDYRPPFY [ACVRL1_Y421_G416S] was tested. Which phosphorylation enrichment did it give?
A: The phosphorylation enrichment was 0.995.

Q: How did the phosphorylation enrichment turn out when TLKVGYKEKQR [EPHA3_Y659_T660K] was run?
A: The phosphorylation enrichment was 0.547.

Q: With CTTIHYTFMCN [TP53_Y234_N235T_YF] as the sequence, how does the phosphorylation enrichment read?
A: Its phosphorylation enrichment is 0.819.

Q: With SRDTCYLVLAV [AMH_Y195_R194C] as the sequence, how does the phosphorylation enrichment read?
A: The phosphorylation enrichment was 1.06.

Q: For QGRQTYLPQPA [DDR2_Y813], which phosphorylation enrichment is on record?
A: Its phosphorylation enrichment is 0.844.

Q: Which phosphorylation enrichment does the source give for DRFDNYIEKVR [DES_Y122_A120D] here?
A: The phosphorylation enrichment was 0.583.

Q: For GDYYCYLAEVA [YWHAG_Y133_R132C], which phosphorylation enrichment is on record?
A: The phosphorylation enrichment was 5.22.

Q: For VVTFSYKPAGN [RBL2_Y544_P547A], which phosphorylation enrichment is on record?
A: Its phosphorylation enrichment is 0.605.

Q: With IMAYFYMCDRA [CASD1_Y382] as the sequence, how does the phosphorylation enrichment read?
A: The phosphorylation enrichment was 1.

Q: For PTTKTYFLHFD [HBA1_Y43_P45L], which phosphorylation enrichment is on record?
A: Its phosphorylation enrichment is 1.51.

Q: Which phosphorylation enrichment does the source give for GLRYGYGGLGG [KRTAP20-2_Y15_V17G] here?
A: Its phosphorylation enrichment is 0.431.

Q: For YGPPQYNMQYS [ERBB2IP_Y977_I979M], which phosphorylation enrichment is on record?
A: The phosphorylation enrichment was 0.481.

Q: How did the phosphorylation enrichment turn out when DEFLEHRRIVG [FAM221A_Y20_Y20H_YF] was run?
A: Its phosphorylation enrichment is 0.58.

Q: With RRIEKYVDQGK [IRAK3_Y61_H57R] as the sequence, how does the phosphorylation enrichment read?
A: Its phosphorylation enrichment is 0.56.

Q: LNLDTYQKRLR [PLA2G2D_Y126_R121L] was tested. Which phosphorylation enrichment did it give?
A: The phosphorylation enrichment was 0.502.

Q: With QFFQSYFNNNF [ZNF236_Y644] as the sequence, how does the phosphorylation enrichment read?
A: Its phosphorylation enrichment is 0.455.

Q: For CEHRGYLYLAI [TEK_Y897], which phosphorylation enrichment is on record?
A: Its phosphorylation enrichment is 0.84.

Q: For GRDQPYSGAGD [TYRO3_Y828], which phosphorylation enrichment is on record?
A: The phosphorylation enrichment was 0.359.

Q: How did the phosphorylation enrichment turn out when LDYNEYVRDLN [HPRT1_Y198_F199V] was run?
A: The phosphorylation enrichment was 0.587.

Q: LGSNTYPFLLM [SAG_Y120_T125M] was tested. Which phosphorylation enrichment did it give?
A: Its phosphorylation enrichment is 1.05.

Q: Which phosphorylation enrichment does the source give for YADGVYLALEE [DUOX2_Y70_Q71L] here?
A: The phosphorylation enrichment was 0.899.

Q: How did the phosphorylation enrichment turn out when CKPGFYNLKEK [LAMA1_Y490] was run?
A: Its phosphorylation enrichment is 0.568.

Q: Which phosphorylation enrichment does the source give for VEGISYDFIPT [CBS_Y308_G307S] here?
A: The phosphorylation enrichment was 0.754.

Q: Which phosphorylation enrichment does the source give for GLAELYEFQKK [CKAP5_Y1854_K1857Q_YF] here?
A: The phosphorylation enrichment was 0.428.

Q: With SWKRRYFLLRA [APBB1IP_Y331] as the sequence, how does the phosphorylation enrichment read?
A: Its phosphorylation enrichment is 0.637.

Q: FSGKAYADEER [CRIM1_Y826] was tested. Which phosphorylation enrichment did it give?
A: The phosphorylation enrichment was 0.786.

Q: With QADVIYVNTQL [MERTK_Y872] as the sequence, how does the phosphorylation enrichment read?
A: Its phosphorylation enrichment is 1.

Q: With QEIATYRRLRE [KRT17_Y384_L388R] as the sequence, how does the phosphorylation enrichment read?
A: The phosphorylation enrichment was 0.597.

Q: How did the phosphorylation enrichment turn out when TPGPNYRPGFN [USH2A_Y463_YF] was run?
A: The phosphorylation enrichment was 0.576.

Q: IVFTSYVLTIL [TAS2R16_Y239_F240V] was tested. Which phosphorylation enrichment did it give?
A: Its phosphorylation enrichment is 1.05.

Q: REVPVYTDSEP [FAM120B_Y368] was tested. Which phosphorylation enrichment did it give?
A: The phosphorylation enrichment was 0.964.

Q: PADRAYSWFQH [NDST1_Y711_YF] was tested. Which phosphorylation enrichment did it give?
A: The phosphorylation enrichment was 0.645.

Q: FRTGHYLCNAC [GATA1_Y223_D218Y_YF] was tested. Which phosphorylation enrichment did it give?
A: The phosphorylation enrichment was 0.393.

system: c-Src; assay: as above

Q: With SIVEDYRPPFY [ACVRL1_Y421_G416S] as the sequence, how does the phosphorylation enrichment read?
A: The phosphorylation enrichment was 0.472.

Q: TLKVGYKEKQR [EPHA3_Y659_T660K] was tested. Which phosphorylation enrichment did it give?
A: Its phosphorylation enrichment is 0.334.

Q: Which phosphorylation enrichment does the source give for CTTIHYTFMCN [TP53_Y234_N235T_YF] here?
A: Its phosphorylation enrichment is 0.653.

Q: SRDTCYLVLAV [AMH_Y195_R194C] was tested. Which phosphorylation enrichment did it give?
A: Its phosphorylation enrichment is 0.666.

Q: Which phosphorylation enrichment does the source give for QGRQTYLPQPA [DDR2_Y813] here?
A: Its phosphorylation enrichment is 0.477.

Q: With DRFDNYIEKVR [DES_Y122_A120D] as the sequence, how does the phosphorylation enrichment read?
A: The phosphorylation enrichment was 0.421.

Q: With GDYYCYLAEVA [YWHAG_Y133_R132C] as the sequence, how does the phosphorylation enrichment read?
A: Its phosphorylation enrichment is 4.14.

Q: Which phosphorylation enrichment does the source give for VVTFSYKPAGN [RBL2_Y544_P547A] here?
A: The phosphorylation enrichment was 0.397.

Q: With IMAYFYMCDRA [CASD1_Y382] as the sequence, how does the phosphorylation enrichment read?
A: Its phosphorylation enrichment is 0.487.

Q: For PTTKTYFLHFD [HBA1_Y43_P45L], which phosphorylation enrichment is on record?
A: Its phosphorylation enrichment is 0.695.

Q: Which phosphorylation enrichment does the source give for GLRYGYGGLGG [KRTAP20-2_Y15_V17G] here?
A: Its phosphorylation enrichment is 0.398.

Q: Which phosphorylation enrichment does the source give for YGPPQYNMQYS [ERBB2IP_Y977_I979M] here?
A: Its phosphorylation enrichment is 0.499.

Q: For DEFLEHRRIVG [FAM221A_Y20_Y20H_YF], which phosphorylation enrichment is on record?
A: The phosphorylation enrichment was 0.409.

Q: Which phosphorylation enrichment does the source give for RRIEKYVDQGK [IRAK3_Y61_H57R] here?
A: Its phosphorylation enrichment is 0.483.

Q: How did the phosphorylation enrichment turn out when LNLDTYQKRLR [PLA2G2D_Y126_R121L] was run?
A: Its phosphorylation enrichment is 0.442.

Q: For QFFQSYFNNNF [ZNF236_Y644], which phosphorylation enrichment is on record?
A: The phosphorylation enrichment was 0.549.

Q: Which phosphorylation enrichment does the source give for CEHRGYLYLAI [TEK_Y897] here?
A: The phosphorylation enrichment was 0.527.

Q: With GRDQPYSGAGD [TYRO3_Y828] as the sequence, how does the phosphorylation enrichment read?
A: Its phosphorylation enrichment is 0.356.

Q: With LDYNEYVRDLN [HPRT1_Y198_F199V] as the sequence, how does the phosphorylation enrichment read?
A: Its phosphorylation enrichment is 0.565.

Q: For LGSNTYPFLLM [SAG_Y120_T125M], which phosphorylation enrichment is on record?
A: Its phosphorylation enrichment is 0.713.

Q: How did the phosphorylation enrichment turn out when YADGVYLALEE [DUOX2_Y70_Q71L] was run?
A: The phosphorylation enrichment was 2.97.

Q: With CKPGFYNLKEK [LAMA1_Y490] as the sequence, how does the phosphorylation enrichment read?
A: The phosphorylation enrichment was 0.34.

Q: Which phosphorylation enrichment does the source give for VEGISYDFIPT [CBS_Y308_G307S] here?
A: Its phosphorylation enrichment is 0.596.

Q: How did the phosphorylation enrichment turn out when GLAELYEFQKK [CKAP5_Y1854_K1857Q_YF] was run?
A: The phosphorylation enrichment was 0.937.

Q: With SWKRRYFLLRA [APBB1IP_Y331] as the sequence, how does the phosphorylation enrichment read?
A: The phosphorylation enrichment was 0.713.

Q: FSGKAYADEER [CRIM1_Y826] was tested. Which phosphorylation enrichment did it give?
A: The phosphorylation enrichment was 0.496.

Q: Which phosphorylation enrichment does the source give for QADVIYVNTQL [MERTK_Y872] here?
A: The phosphorylation enrichment was 1.27.

Q: With QEIATYRRLRE [KRT17_Y384_L388R] as the sequence, how does the phosphorylation enrichment read?
A: Its phosphorylation enrichment is 0.537.

Q: With TPGPNYRPGFN [USH2A_Y463_YF] as the sequence, how does the phosphorylation enrichment read?
A: The phosphorylation enrichment was 0.452.

Q: How did the phosphorylation enrichment turn out when IVFTSYVLTIL [TAS2R16_Y239_F240V] was run?
A: The phosphorylation enrichment was 0.55.

Q: How did the phosphorylation enrichment turn out when REVPVYTDSEP [FAM120B_Y368] was run?
A: The phosphorylation enrichment was 0.872.

Q: With PADRAYSWFQH [NDST1_Y711_YF] as the sequence, how does the phosphorylation enrichment read?
A: The phosphorylation enrichment was 0.868.

Q: How did the phosphorylation enrichment turn out when FRTGHYLCNAC [GATA1_Y223_D218Y_YF] was run?
A: Its phosphorylation enrichment is 0.401.
